B1: EREDCK: 2-enoate reductase (ERED) from Clostridium kluyveri DSM 555 (protein)
chain: MKNKSLFEPIKIGNMEVKNKIAMAPMGAFGLVDNECCFNQRAVDYYVERAKGGTGLIITSVVKVENELDKVLTGVLPITSINPAKFIMTSSEMTERVHAYGSKIFLQLSMGFGRSGAPGGLLTSQPVSASAVPNYWDPTVTCRELTTSEVEWIVEKFAEGAKIAHKAGFDGVEIHAVHEGYLLDQFTLSIFNRRTDKYGGDLRGRLQLPIEIVEAIKTEVGSNFPVGLRYSVKSCIKDWGQGGLAEEDYVEKGRDLEEGLEAAKILEAAGYDAFNADLGTYDAWYWAHPPLYQKDGLYLPYTKELKKVVKIPVMVAGKMGMPDVAEGALEDEAADMVTLGRPLLCDAYWPKKVFTGQIDRIRPCIGCHTGCMGRGFEGRPLSCTVNPAAGRERYYEVKPAAAPKKVMIVGGGVAGMEAARITAMRGHKVSMYEGTKELGGQVIPASVPDFKIDDRRLLDWYRNEMKELKVKLVLDTNVTEEVVEKEKPDVVIIATGAKEIKLNLPGIEKDKVATVIEVLKGSKQVGENVLMVGGGLAGCETALYLAKQGKKVTIIEARDTILNAGKPVPHMNKIMLIDLLKNSGVNIITETSLLEVTDRGAILIDNKFKKQNIDADTVVIAVGFKADRELYNKLRDKVADLYLVGDANESANIMNAIWSANEIALNC
B2: SM2011_b20379: aminotransferase (AT) from Sinorhizobium meliloti (protein)
chain: MNDRPNSLHALDKQSLVHPYTNLAVHQETGPHVITGGDGIYVVDDEGKRYIEGLAGLFCAGLGFSEQRLVEAATRQLKTMPFYHSFAHKSTEPGIRLAEKLLSIAPVPMSKVFFAGSGSEANDTAIKLIWYYNNALGRPEKKKIISRRKAYHGVTVATASLTGLPFNHRDFDLPIANILHTDCPHYWRFAETGETEEDFATRMANNLEAIILEEGPETIAAFFAEPVMVSGGVITPPKTYFEKVQAVLRKYDILLIADEVICGFGRTGNMFGSETYGLKPDMISCAKQLSAAYMPISALMINAKIADALVDQSRKIGTFSHGFTYGGHPVAAAVALEALTIYEEIDIVGHVRSVAPAFQDRVRKLGEHPLIGEARGVGLVAGLEFVKDKATRENFPPAWQVANQAGKFATARGVLTRGLGDMVSLCPAMIIDDEQIDDLMTRMGLALDDTLAWARAQGHVG
B3: SM2011_c04388: aminotransferase (AT) from Sinorhizobium meliloti (protein)
chain: MNAHNKPNAPVLDSYWMPFTANRQFKAAPRLLAAAEGMHYTSVDGRTVLDGTAGLWCVNAGHGRRQIAAAVERQLSTMDFAPSFQMGHPIAFDFAERLAEIAPGPAGAKLDRVFFTGSGSESVDTALKMALAYQRSIGQGTRTRLIGRERGYHGVGFGGISVGGIVNNRRVFPQLPGSDHLRHTHDPAKNAFVKGQPEHGAELADDLERLVALHGAETIAACIVEPVAGSTGVLIPPKGYLERLRAICDKHGILLIFDEVITGFGRLGAAFATDYFGVTPDIVTTAKGLTNGAIPMGAVFASRKVHDALMHGPEGQIELFHGYTYSGHPAACAAGIATLDIYRDEGLMTRAAEIEGDWHEAMHSMKGLPHVIDIRTIGLIAGIELQSRDGAPGARAYDVFVDCFERGLLIRVTGDIIAFSPPLIAEKQHFGEIVSILADALKRVK
B4: gabT: aminotransferase (AT) from Escherichia coli (protein)
chain: MNSNKELMQRRSQAIPRGVGQIHPIFADRAENCRVWDVEGREYLDFAGGIAVLNTGHLHPKVVAAVEAQLKKLSHTCFQVLAYEPYLELCEIMNQKVPGDFAKKTLLVTTGSEAVENAVKIARAATKRSGTIAFSGAYHGRTHYTLALTGKVNPYSAGMGLMPGHVYRALYPCPLHGISEDDAIASIHRIFKNDAAPEDIAAIVIEPVQGEGGFYASSPAFMQRLRALCDEHGIMLIADEVQSGAGRTGTLFAMEQMGVAPDLTTFAKSIAGGFPLAGVTGRAEVMDAVAPGGLGGTYAGNPIACVAALEVLKVFEQENLLQKANDLGQKLKDGLLAIAEKHPEIGDVRGLGAMIAIELFEDGDHNKPDAKLTAEIVARARDKGLILLSCGPYYNVLRILVPLTIEDAQIRQGLEIISQCFDEAKQ
B5: Syrb2: aminotransferase (AT) from Pseudomonas syringae (protein)
chain: MSKKFALTAEQRASFEKNGFIGPFDAYSPEEMKETWKRTRLRLLDRSAAAYQDLDAISGGTNIANYDRHLDDDFLASHICRPEICDRVESILGPNVLCWRTEFFPKYPGDEGTDWHQADTFANASGKPQIIWPENEEFGGTITVWTAFTDANIANGCLQFIPGTQNSMNYDETKRMTYEPDANNSVVKDGVRRGFFGYDYRQLQIDENWKPDEASAVPMQMKAGQFIIFWSTLMHASYPHSGESQEMRMGFASRYVPSFVHVYPDSDHIEEYGGRISLEKYGAVQVIGDETPEYNRLVTHTTRGKKFEAV
B6: Mll7127: aminotransferase (AT) from Rhizobium loti (protein)
chain: MLNQSNELNAWDRDHFFHPSTHMGTHARGESPTRIMAGGEGVTVWDNNGRKSIDAFAGLYCVNVGYGRQKIADAIATQAKNLAYYHAYVGHGTEASITLAKMIIDRAPKGMSRVYFGLSGSDANETNIKLIWYYNNVLGRPEKKKIISRWRGYHGSGVMTGSLTGLDLFHNAFDLPRAPVLHTEAPYYFRRTDRSMSEEQFSQHCADKLEEMILAEGPETIAAFIGEPILGTGGIVPPPAGYWEKIQAVLKKYDVLLVADEVVTGFGRLGTMFGSDHYGIKPDLITIAKGLTSAYAPLSGVIVADRVWQVLVQGSDKLGSLGHGWTYSAHPICVAAGVANLELIDEMDLVTNAGETGAYFRAELAKAVGGHKNVGEVRGDGMLAAVEFVADKDDRVFFDASQKIGPQVATALAASGVIGRAMPQGDILGFAPPLCLTREQADIVVSKTADAVKSVFANL
B7: SM2011_b21186: aminotransferase (AT) from Sinorhizobium meliloti (protein)
chain: MTSLTDRKNAAISRGVGMTTQVYADRAENAEIWDKEGNRYIDFAAGIAVVNTGHRHPKVIAAVKAQLDRFTHTCHQVVPYENYVHLAERLNAIVPGDFAKKTIFVTTGAEAVENAVKIARAATGRQAVVAFGGGFHGRTFMGMALTGKVVPYKVGFGAMPADVFHAPFPIELHGVTVEQSLSALKKLFAADVDPARVAAIIIEPVQGEGGFYPVPTAFMKALREVCDQHGILLIADEVQTGFARTGKLFAMEHHGVAPDLTTMAKSLAGGFPLAAVTGRAEIMDAPGPGGLGGTYGGNPLGIAAAHAVLDVIAEENLCERANQLGNRLKQRLAAIREKAPEIVDIRGPGFMNAVEFNDVRTNLPSAEFANKVRLLALEKGLILLTCGVHGNVIRFLAPITIQDEVFAEALDTIEASILEARG
B8: SM2011_b20423: aminotransferase (AT) from Sinorhizobium meliloti (protein)
chain: MLERSNELTAWDRDHFFHPSTHMGMHARGETPTRVIGGGEGVYITDISGKRSLDAFAGLYCVNVGYGRQKIADAIAEQAKNLAYYHAYVGHGTEASIRLSKMIIDRAPEGMSRVYFGLSGSDANETNIKLIWYYNNILGRPEKKKIISRWRGYHGSGVMTGSLTGLHLFHNAFDLPRAPILHTEAPYYFRRPDRSMSEEQFSQYCADKLEEMILAEGPDTVAAFIGEPILGTGGIVPPPKGYWEKIQAVLQKYDILLVADEVVTGFGRLGTMFGSDHYGIKPDLITIAKGLTSAYAPLSGTIVSDKLWQVLVKGSDELGAIGHGWTYSAHPICAAAGIANLELIDELGIVENAGSTGAYFRAELQKAVGDHRHVGEVRGDGLMAAIEFVEDRDDRAFFDPGRKVGPQVAAALLERGVIGRAMPQGDILGFAPPLCLTRDEADIVVKAAADTIQSVLGR
B9: Spo3471: aminotransferase (AT) from Ruegeria pomeroyi (protein)
chain: MATITNHMPTAELQALDAAHHLHPFSANNALGEEGTRVITRARGVWLNDSEGEEILDAMAGLWCVNIGYGRDELAEVAARQMRELPYYNTFFKTTHVPAIALAQKLAELAPGDLNHVFFAGGGSEANDTNIRMVRTYWQNKGQPEKTVIISRKNAYHGSTVASSALGGMAGMHAQSGLIPDVHHINQPNWWAEGGDMDPEEFGLARARELEEAILELGENRVAAFIAEPVQGAGGVIVAPDSYWPEIQRICDKYDILLIADEVICGFGRTGNWFGTQTMGIRPHIMTIAKGLSSGYAPIGGSIVCDEVAHVIGKDEFNHGYTYSGHPVAAAVALENLRILEEENILDHVRNVAAPYLKEKWEALTDHPLVGEAKIVGMMASIALTPNKASRAKFASEPGTIGYICRERCFANNLIMRHVGDRMIISPPLVITPAEIDEMFVRIRKSLDEAQAEIEKQGLMKSAA

Experiment: Whole-cell biotransformation of muconic acid by E. coli expressing EREDs
Type: cell-based
Conditions: 0.7 mM, 24-hr incubation
Experimental: After a 24-hr incubation, no muconic acid or 2-hexenedioic acid were detected in the culture, and a 99% yield of adipic acid was obtained (FIGS. 8a, 8b, and 8c). […] The 3-hexenedioic acid-like compound appears to be an inefficient substrate for these EREDS. This is similar to the mutated 2,4-dienoyl-CoA reductases from E. coli, which catalyze hydrogenation of 2,4-dienoyl CoA into 3-enoyl CoA (Tu, X., Hubbard, P. A., Kim, J. J. P. & Schulz, H. Two distinct proton donors at the active site of Escherichia coli 2,4-dienoyl-CoA reductase are responsible for the formation of different products. Biochemistry 47, 1167-1175 (2008).).

| Molecule | yield of adipic acid from trans,trans-muconic acid |
| --- | --- |
| B1 | 99% |

Experiment: AT activity coupled with alanine and glutamate dehydrogenases
Type: biochemical
Conditions: 10 mM adipaldehyde, alanine and glutamate amino-donors; ND = no activity was detected

| Molecule | Adipaldehyde 10 mM U/mg |
| --- | --- |
| B2 | 0.106 ± 0.008 U/mg |
| B3 | 0.152 ± 0.001 U/mg |
| B4 | 0.337 ± 0.008 U/mg |
| B5 | 0.040 ± 0.001 U/mg |
| B6 | 0.063 ± 0.001 U/mg |
| B7 | 0.051 ± 0.014 U/mg |
| B8 | 0.162 ± 0.002 U/mg |
| B9 | 0.021 ± 0.001 U/mg |

— US12371675B2, “Process and microorganism for synthesis of adipic acid from carboxylic acids” (THE GOVERNING COUNCIL OF THE UNIVERSITY OF TORONTO, priority 2015, dated 2025)
